Experimental data: the supplement of paper PMC10126150
± gives the standard deviation of the averaged measurements.

Tested on: ATP
Experiment: switch fluorescence ratio, 500 uM ATP over buffer (Cy3 cluster intensity, sum of 5 cycles each) (fold (ratio)); higher = stronger signal-on switching upon ATP binding; sequences stand for … in TCGTCGGCAGCGTCAGATGTGTATAAGAGACAGTTTTTTTTTTTTTTTTTTTTTTTTT…TC
Conditions: aptamer strand: ATP DNA aptamer (quencher-CACCTGGGGGAGTATTGCGGAGGAAGG + anchor), 100 nM annealed; ATP concentration: 500 uM
Procedure, shortened: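 Per cluster, summed Cy3 intensity from the target cycles was divided by that from the buffer cycles to give the fluorescence ratio, then averaged per switch-domain sequence. Clusters outside 100-1000 RFU were excluded. The Cy3-labelled switching-strand clusters, on a modified Illumina MiSeq flow-cell, were annealed to 100 nM quencher-labelled ATP aptamer and imaged in selection buffer, then after 15 min with 500 uM ATP at 22 °C, for five cycles with NaOH stripping and re-annealing between them.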
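Note: ATP exposure 15 min at 22 °C before imaging.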

Sequence | switch fluorescence ratio
TAGAGTTTTA | 0.972 ± 0.022
TAGATAGAAC | 0.976 ± 0.054
TAGATCCTTT | 1.03 ± 0.027
TAGATCGAAC | 1.02 ± 0.024
TAGATGCGGT | 1.01 ± 0.032
TAGATGTTTA | 1.32 ± 0.6
TAGATGTTTT | 0.986 ± 0.035
TAGATTGTAA | 1.05 ± 0.11
TAGATTGTTT | 0.998 ± 0.021
TAGATTTCTG | 0.989 ± 0.025
TAGCAGTCAA | 1.02 ± 0.02
TAGCCAAGGG | 0.994 ± 0.053
TAGCCCGGTG | 1.47 ± 0.53
TAGCCCTTTT | 0.973 ± 0.01
TAGCGAAGTG | 0.929 ± 0.061
TAGCGAGCGC | 0.988 ± 0.068
TAGCGCGGGA | 1 ± 0.016
TAGCGGCGTC | 1 ± 0.098
TAGCGGGCGC | 0.986 ± 0.032
TAGCGGGGAC | 1.07 ± 0.037
TAGCGGGGCG | 0.9881 ± 0.0061
TAGCGGGGGC | 1.02 ± 0.05
TAGCGGGTTC | 1.055 ± 0.0048

Sequence | switch fluorescence ratio
TAGCGGTCTC | 1.03 ± 0.032
TAGCGTAGAA | 0.993 ± 0.046
TAGCTAAATT | 0.99 ± 0.012
TAGCTAATCC | 1.08 ± 0.015
TAGCTAGGTG | 1.62 ± 0.05
TAGCTCGGCT | 0.95364 ± 0.00022
TAGCTCGGGC | 1.03 ± 0.019
TAGCTCTAGT | 1.016 ± 0.0044
TAGCTGATGT | 1.03 ± 0.02
TAGCTTGTGG | 0.9912 ± 0.0062
TAGGAAAAAT | 1.09 ± 0.19
TAGGAAAGTG | 1.03 ± 0.054
TAGGAACAGC | 0.98 ± 0.012
TAGGAATCCA | 0.999 ± 0.012
TAGGACCAGC | 0.98 ± 0.012
TAGGACGTGC | 0.9627 ± 0.0032
TAGGACTAGA | 0.9597 ± 0.0039
TAGGAGCGAT | 1.15 ± 0.031
TAGGAGGGCT | 0.985 ± 0.049
TAGGAGGGGT | 0.999 ± 0.022
TAGGAGGTCC | 0.96 ± 0.081
TAGGAGGTGG | 1.03 ± 0.041
TAGGAGGTTC | 0.988 ± 0.021

Sequence | switch fluorescence ratio
TAGGAGTGGG | 1 ± 0.01
TAGGAGTTAG | 1 ± 0.047
TAGGAGTTGC | 0.971 ± 0.052
TAGGAGTTTG | 0.9894 ± 0.0046
TAGGATACTT | 0.9769 ± 0.0016
TAGGATGAAG | 1.03 ± 0.011
TAGGATGGAG | 0.97358 ± 0.00078
TAGGATGGGC | 1.04 ± 0.04
TAGGATGGGG | 1 ± 0.032
TAGGATGTAT | 0.9864 ± 0.0088
TAGGATTATA | 0.964 ± 0.021
TAGGATTGTA | 0.9806 ± 0.0089
TAGGCAACGA | 1.04 ± 0.063
TAGGCAGGGT | 1.56 ± 0.78
TAGGCATTGG | 0.995 ± 0.014
TAGGCATTTT | 1 ± 0.023
TAGGCCTTAC | 1.43 ± 0.54
TAGGCGTGGT | 1.01 ± 0.017
TAGGCTATAT | 1.01 ± 0.042
TAGGCTGCTG | 0.988 ± 0.021
TAGGCTTTCG | 0.9957 ± 0.0076
TAGGCTTTGG | 0.97 ± 0.0099
TAGGCTTTGT | 1.01 ± 0.021

Sequence | switch fluorescence ratio
TAGGGAAAGA | 1 ± 0.014
TAGGGAAGAT | 1.07 ± 0.013
TAGGGACTGG | 0.996 ± 0.016
TAGGGAGGGC | 1.03 ± 0.041
TAGGGATTTG | 1.01 ± 0.014
TAGGGATTTT | 0.986 ± 0.018
TAGGGCATCG | 1.01 ± 0.03
TAGGGCATGT | 0.9798 ± 0.0026
TAGGGCATTG | 1.01 ± 0.012
TAGGGCCAAC | 1.016 ± 0.0092
TAGGGCGACT | 1.04 ± 0.049
TAGGGCGCGT | 0.9947 ± 0.0094
TAGGGCGGTT | 0.98 ± 0.046
TAGGGCTTAG | 1.02 ± 0.032
TAGGGGACAA | 1 ± 0.035
TAGGGGAGGA | 0.993 ± 0.035
TAGGGGCCTG | 0.9831 ± 0.0098
TAGGGGCTTC | 0.979 ± 0.018
TAGGGGGAGT | 0.962 ± 0.059
TAGGGGGCAC | 1 ± 0.025
TAGGGGGGCA | 0.991 ± 0.041
TAGGGGGGGG | 1.02 ± 0.073
TAGGGGGGTG | 1.02 ± 0.025

Sequence | switch fluorescence ratio
TAGGGGGTAC | 1.31 ± 0.58
TAGGGGGTTG | 0.987 ± 0.027
TAGGGGGTTT | 0.99 ± 0.032
TAGGGGTAGT | 1.01 ± 0.033
TAGGGGTCAA | 0.99815 ± 0.0002
TAGGGGTGAT | 1.02 ± 0.047
TAGGGTACCG | 1.06 ± 0.032
TAGGGTTGGA | 1 ± 0.018
TAGGGTTGTG | 0.9838 ± 0.0033
TAGGTAAAGA | 0.98 ± 0.021
TAGGTAGATG | 1.02 ± 0.018
TAGGTAGGGT | 1.04 ± 0.073
TAGGTATGCG | 1.18 ± 0.037
TAGGTCGCCA | 1.04 ± 0.011
TAGGTCTGCA | 1.033 ± 0.0058
TAGGTCTGGG | 1.01 ± 0.036
TAGGTGGGGG | 1.01 ± 0.039
TAGGTGGGGT | 0.971 ± 0.016
TAGGTGTGTA | 0.984 ± 0.031
TAGGTGTTGC | 1 ± 0.023
TAGGTTCCGG | 0.993 ± 0.034
TAGGTTCCTT | 0.986 ± 0.035
TAGGTTGGGG | 1.005 ± 0.0065

Sequence | switch fluorescence ratio
TAGGTTGTCT | 1.03 ± 0.036
TAGGTTTAAT | 0.992 ± 0.036
TAGGTTTAGG | 0.987 ± 0.013
TAGGTTTGGC | 1.03 ± 0.024
TAGGTTTTCG | 0.98974 ± 0.00052
TAGGTTTTTG | 1.01 ± 0.058
TAGTAACGGT | 0.996 ± 0.053
TAGTAAGGGG | 0.969 ± 0.051
TAGTAAGTTT | 0.998 ± 0.012
TAGTAGAGTT | 1 ± 0.013
TAGTAGCCTT | 1.03 ± 0.022
TAGTAGGGCA | 1.01 ± 0.033
TAGTATGAGG | 0.976 ± 0.021
TAGTATGGCG | 1.04 ± 0.088
TAGTATGGGA | 0.968 ± 0.013
TAGTATTTAT | 1.02 ± 0.044
TAGTCAGAAT | 0.967 ± 0.012
TAGTCAGAGG | 1.01 ± 0.012
TAGTCCCCCC | 1.21 ± 0.2
TAGTCGATGC | 1.03 ± 0.034
TAGTCGCTCC | 1.03 ± 0.034
TAGTGAACTT | 1.01 ± 0.0054
TAGTGAAGGG | 0.9974 ± 0.0061

Sequence | switch fluorescence ratio
TAGTGATGCG | 0.967 ± 0.025
TAGTGCCTGT | 0.995 ± 0.028
TAGTGCGGTA | 1.036 ± 0.0022
TAGTGGAAAC | 0.9885 ± 0.0015
TAGTGGGGGC | 1.01 ± 0.044
TAGTGGGGTA | 0.98 ± 0.032
TAGTGGGTCC | 1.02 ± 0.037
TAGTGGGTTA | 0.974 ± 0.023
TAGTGGGTTG | 1 ± 0.021
TAGTGTATCG | 0.993 ± 0.045
TAGTGTCTTT | 0.993 ± 0.014
TAGTGTGTTG | 0.996 ± 0.011
TAGTGTTGGG | 0.9837 ± 0.0015
TAGTTAACTT | 1.01 ± 0.021
TAGTTAATCG | 0.968 ± 0.017
TAGTTACGAT | 1.04 ± 0.012
TAGTTATGAG | 1.12 ± 0.19
TAGTTATGGG | 0.998 ± 0.044
TAGTTCGTTG | 0.9799 ± 0.0081
